Reference: US11021533 (VANDERBILT UNIVERSITY, dated 2021)

B1: ZIKV-116 (antibody, V domains shown)
VH: EVKLVESGRGLVRPGGSLRLSCAASGFTFSNYAMSWVRQGPGMGLEWVSTITADSDSKYYVDSVKGRFTISRDNSKDTLFLHMTSLRAEDTAVYYCAKDRLSRGVGELYDSWGQGTLVTVSQ
VL: DIQMTQSPSTLSASVGDRVTITCRASQSIDVWLAWYQQKPGKAPKLLMYKTSTLQTGVPSRFSGSGSGTEFTLTISSLQTDDFATYYCQKYDSYPWTFGPGTKVEIK
B2: ZIKV-216 (antibody, V domains shown)
VH: EVQLVQSGAEGKKPGESLKISCKGSGYNFSNYWIGWVRQMPGKGLEWMGIIYPGDSDTRYSPSFQGQVTISADKSINTAYLQWRSLRASDSAMFYCARGVMITTPNPYDWFDAWGQGTLVTVSS
VL: QSALTQPASVSGSPGQSITISCTGTGSDIGTYDYVSWYQQHPGKAPKLMIYGVTKRPSGVSHRFSGSKSVNTASLTISGLQAEDEADYFCSSYSTSSTFVVFGGGTKLTVL
B3: ZIKV-195 (antibody, V domains shown)
VH: QVQVVESGGGVVQPGRSLRLSCAASGFTFSSSAMHWVRQAPGKGLEWVAVISYDGSNKYYGDSVKGRFTISRDNSKNTLYLQMHSLRAEDTAVYYCAKDRDAYNTVGYFAYYYGMDVWGQGTLVTVSS
VL: QSVLTQPPSVSEAPRQRVTISCSGSSSNIGNNAVNWYQQLPGKAPKLLIYYDDLLPSGVSDRFSGSKSGTSASLAISGLQSEDEADYYCAAWDDSLTRYVFGTGTKVTVL
B4: ZIKV-117 (antibody, V domains shown)
VH: QVQLVESGGGVVRPGGSLRLSCAASGFTFKNYGIHWVRQAPGKGPEWVAFVRYDGNNKYYADSVKGRFTISRDNAKNTLSLQMNSLRVEDTAVYFCARDPETFGGFDYWGQGTLVTVSS
VL: ETVMTQSPATLSVSPGERGTLSCRASESVSSNLAWYQQKPGKAPRLLIYGASTRATGIPDRFSGSGSGTEFTLTISSLQSEDFAVYYCQQYYYSPRTFGQGTKVEVK

Molecular target: ZIKV strain H/PF/2013 (French Polynesia, 2013) virus (Zika virus, strain H/PF/2013)
Experiment: cell-based or functional assay

Binder	FRNT50 (focus reduction neutralization test on Vero cells) [ng/mL]
B1	16
B2	16
B3	346
B4	5
